From US20170137511A1 (CALYPSO BIOTECH, published 2017)
Residue numbers refer to the chain shown, from its start. Each block holds one binder with its values, some of them ahead of it.

Tests used:
[1] = target: T1, human IL-15 (preparation not stated) (human, UniProt P40933 49-162, limits assumed); experiment: ELISA; the weaker binders of the comparison
T1 construct: also called recombinant IL-15; recombinant human IL-15

[2] = target: T2, recombinant human IL-15 (R&D systems cat. no. 247-IL) (human, UniProt P40933 49-162); experiment: cell-based or functional assay
T2 sequence (P40933 49-162 limits assumed): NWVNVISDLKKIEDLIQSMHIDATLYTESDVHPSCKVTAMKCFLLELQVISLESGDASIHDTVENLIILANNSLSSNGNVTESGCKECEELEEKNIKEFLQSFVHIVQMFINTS

[3] = target: T2, recombinant human IL-15 (R&D systems …); experiment: cell-based or functional assay; remark: listed apart in the source
[4] = target: T3, recombinant human IL-15 (Prospec cat no. CYT230) (human, UniProt P40933 49-162); experiment: ELISA, plate-bound human IL-15; printed as BC50 (half-maximal binding concentration)
T3 sequence (P40933 other isoform, or with tags, fused parts or gaps): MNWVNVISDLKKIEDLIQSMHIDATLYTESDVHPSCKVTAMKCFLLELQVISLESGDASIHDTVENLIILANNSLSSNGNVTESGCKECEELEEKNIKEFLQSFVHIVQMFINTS
Experimental: (§1) Maxisorp plates were coated with recombinant human IL-15 (Prospec cat no. CYT230) or Rhesus macaque IL-15 (MyBiosource cat. no. MBS948894) at 100 ng/well in carbonate coating buffer for 2 hours at 37° C. Since published sequences of Rhesus macaque and Cynomolgus monkey IL-15 are identical, such recombinant IL-15 protein was referred to as Macaque Monkey IL-15. Tested human IL-15 recombinant protein has a sequence identical to that provided in SEQ ID NO: 1 but with an additional methionine at the N-terminal position as usually done for expressing recombinant proteins in E. Coli. Tested recombinant Macaque Monkey IL-15 was produced in yeast and has a sequence identical to that provided in SEQ ID NO: 4 but with an additional N-terminal His tag.
(§2) The plate was then blocked with 2% normal goat serum for 30 min at 37° C. and washed 6 times with PBS-Tween (0.05% Tween-20 in PBS, v/v). Test antibodies were added to the plate in triplicate at various dilutions in PBS-Tween and the plate was incubated with gentle rocking at room temperature for 2 hours. The plate was then washed 6 times with PBS-Tween and an appropriate dilution of goat anti-human IgG antibody (Millipore cat. no. AP309P) conjugated to horseradish peroxidase (HRP) was added to the plate and left rocking at room temperature for 1 hour. The plate was then washed 6 times with PBS-Tween and incubated with TMB substrate. The reaction was stopped by the addition of 1M H₂SO₄ and read at 450 nm. Dose response curves of absorbance versus concentration were plotted and analyzed to determine half-maximal binding concentrations (BC₅₀) using the Graphpad Prism software. BC₅₀ values expressed as molarity were extrapolated from concentration in ng/ml using a 150 kDa molecular weight value for all antibodies.

[5] = target: T4, recombinant Macaque Monkey IL-15 (MyBiosource cat. no. MBS948894) (Rhesus macaque / Cynomolgus monkey, UniProt P40221 49-162 (Chlorocebus aethiops entry)); experiment: ELISA, plate-bound Macaque Monkey IL-15; printed as BC50 (half-maximal binding concentration)
T4 construct: Produced in yeast; also called Rhesus macaque IL-15; recombinant monkey IL-15; not shown: additional N-terminal His tag
T4 sequence (P40221 49-162): as the sequence (P40933 49-162 limits assumed) above, with L52H, A57T, S58D, S73I, V80I counted along it
Experimental: as §1, §2

[6] = target: T3, recombinant human IL-15 (Prospec cat …); experiment: SPR (Biacore 3000), human IL-15 amine-coupled to the chip, antibody injected, 1:1 Langmuir fit
Experimental: Human IL-15 (Prospec cat no. CYT230) was immobilized onto a CMS chip (GE Healthcare) using standard amine coupling, and antibodies injected at various concentrations in 120 μl phosphate buffer saline with a flow rate of […]. Binding kinetics were analyzed on a Biacore 3000 apparatus (GE Healthcare) with a 300 seconds dissociation period. Reference signal and 0 nM antibody concentration signal were substracted and data fitted using a 1:1 (Langmuir) binding model.

[7] = target: T3, recombinant human IL-15 (Prospec cat …); experiment: ELISA, plate-bound recombinant human IL-15 (100 ng/well), HRP goat anti-human IgG, absorbance at 450 nm
Experimental: as §1
The plate was then blocked with 2% normal goat serum for 30 min at 37° C. and washed 6 times with PBS-Tween (0.05% Tween-20 in PBS, v/v). […] The reaction was stopped by the addition of 1M H₂SO₄ and read at 450 nm. Dose response curves of absorbance versus concentration were plotted and analyzed to determine half-maximal binding concentrations (BC₅₀) using the Graphpad Prism software. BC₅₀ values expressed as molarity were extrapolated from concentration in ng/ml using a 150 kDa molecular weight value for all antibodies.

T1 sequence (P40933 49-162 limits assumed): as the sequence (P40933 49-162 limits assumed) above

binding result [1]: binds
B1: hVH1:hVK2 (antibody, human IgG1, kappa, V domains shown)
VH: EVRLMASGGGLVQPGGSLRLSCAASEFTFSNYAMSWVRQAPGKGLEWVATISRGGDYTYYPDSVKGRFTISRDNSKNTLYLQMNSLRAEDTAVYYCARRVSMITGGWAMDYWGQGTLVTVSS
VL: EVVMTQSPATLSLSPGERATLSCRSSQSIVDITGNTYLEWYQQKPGQAPRLLIYKVFNRFSGIPARFSGSGSGTDFTLTISSLEPEDFAVYYCFQDSFVPYTFGQGTKLEIKR
notes: Human IgG1 (G1m3) / kappa (Km3)

binding result [1]: binds
B2: cVH1:hVK2 (antibody, human IgG1, kappa, V domains shown)
VH: B1 VH with Q13K, R19K, A40T, G42E, G44R, S75A, N84S, A88S, V93L, L117S
VL: B1 VL
notes: as for B1

IC50 in Kit 225 cells (nM), Human IL-15 [2]: 3.7 nM
IC50 in M-07e cells (nM), Human IL-15 [2]: 3.2 nM
IC50 in M07e cells for IL-15 trans presentation [3]: 0.63 nM
EC50 [4]: 8.41 nM
EC50 [5]: 0.733 nM
Kd [6]: 0.0367 nM
koff [6]: 5.26e-05 s⁻¹
kon [6]: 1.44e+06 M⁻¹ s⁻¹
EC50 (read off the curve) [7]: ~0.8 µg/mL
B3: 146B7 (comparative antibody 2) (antibody, V domains shown)
VH: EVQLVQSGAEVKKPGESLKISCKVSGYFFTTYWIGWVRQMPGKGLEYMGIIYPGDSDTRYSPSFQGQVTISADKSISTAYLQWSSLKASDTAMYYCARGGNWNCFDYWGQGTLVTVSS
VL: EIVLTQSPGTLSLSPGERATLSCRASQSVSSSYLAWYQQKPGQAPRLLIYGASRRATGIPDRFSGSGSGTDFTLTISRLEPEDFAVYYCQRYGSSHTFGQGTKLEIS
notes: Fully human antibody of the prior art (WO 03/017935), 'produced in the same expression system'; also called AMG 714; HuMaxIL-15
